The source of these data is US20050032696A1.

The target in the assay is MEF2C (pcDNAMEF2C, mouse MEF2C cDNA) (mouse) (UniProt Q8CFN5). Kind of assay: cell-based or functional assay.
Chain of MEF2C (pcDNAMEF2C, mouse MEF2C cDNA) (mouse) (Q8CFN5 whole entry): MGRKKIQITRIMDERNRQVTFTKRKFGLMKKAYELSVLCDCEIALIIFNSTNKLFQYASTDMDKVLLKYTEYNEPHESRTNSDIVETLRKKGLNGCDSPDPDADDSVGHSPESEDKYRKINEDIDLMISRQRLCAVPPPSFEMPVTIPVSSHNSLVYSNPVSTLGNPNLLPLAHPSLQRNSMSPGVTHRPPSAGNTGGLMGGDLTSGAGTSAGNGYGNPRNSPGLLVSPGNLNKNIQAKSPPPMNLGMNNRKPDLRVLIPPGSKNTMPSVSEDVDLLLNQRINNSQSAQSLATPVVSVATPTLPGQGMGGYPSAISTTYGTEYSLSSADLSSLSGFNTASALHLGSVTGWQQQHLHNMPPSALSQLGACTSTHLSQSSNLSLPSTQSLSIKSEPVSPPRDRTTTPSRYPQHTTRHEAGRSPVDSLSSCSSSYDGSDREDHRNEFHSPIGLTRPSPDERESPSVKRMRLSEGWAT

Regarding “hMusTRD1α1944aa (pcDNA3.1hMusTRD1α1944aamyc/his) (from UniProt Q9UHL9 1-959)”, the MEF2C-mediated transcriptional activation of the hTnIslow USE (luciferase reporter, co-transfected C2C12 cells) came out at 3 fold.
